Measurements: the supplement of paper PMC9112550, “Optimization of the antimicrobial peptide Bac7 by deep mutational scanning” (BMC Biology, 2022)

Each sequence was assayed on Escherichia coli TOP10 (assay: shrunken log2 fold change of peptide-encoding DNA abundance (4.5 h post-induction vs induction); higher = less antimicrobial activity (less host growth inhibition)). Conditions: time post-induction: 4.5 h; library: site-saturation at positions 5, 18, 19, 20.
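Note: peptides expressed intracellularly from a pBAD plasmid library in pooled LB shake-flask culture, induced with 0.3% L-arabinose, DNA abundance read by NGS, three biological replicates, DESeq2 with apeglm shrinkage.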

Row | Sequence | shrunken log2 fold change
1 | RRIRLRPPRLPRPRPRPEMCPRP | 0.0636
2 | RRIRDRPPRLPRPRPRPYLAPRP | -0.0552
3 | RRIRPRPPRLPRPRPRPPFPPRP | 0.454
4 | RRIRNRPPRLPRPRPRPLGDPRP | 0.218
5 | RRIRVRPPRLPRPRPRPCNHPRP | -0.588
6 | RRIRNRPPRLPRPRPRPDFHPRP | -0.441
7 | RRIRLRPPRLPRPRPRPLGPPRP | 0.332
8 | RRIRQRPPRLPRPRPRPQTTPRP | -0.0245
9 | RRIRCRPPRLPRPRPRPFQDPRP | -0.169
10 | RRIRTRPPRLPRPRPRPEPMPRP | 0.00621
11 | RRIRERPPRLPRPRPRPTIGPRP | -0.323
12 | RRIRDRPPRLPRPRPRPQERPRP | 0.0671
13 | RRIRMRPPRLPRPRPRPSYCPRP | -0.236
14 | RRIRIRPPRLPRPRPRPVRVPRP | 0.458
15 | RRIRMRPPRLPRPRPRPTGFPRP | 1.12
16 | RRIRVRPPRLPRPRPRPFPVPRP | -0.0106
17 | RRIRDRPPRLPRPRPRPAHQPRP | 0.516
18 | RRIRARPPRLPRPRPRPIEIPRP | 0.0613
19 | RRIRRRPPRLPRPRPRPMVEPRP | -0.257
20 | RRIRRRPPRLPRPRPRPYKQPRP | -0.286
21 | RRIRGRPPRLPRPRPRPHGNPRP | 0.365
22 | RRIRDRPPRLPRPRPRPKRKPRP | 0.0894
23 | RRIRCRPPRLPRPRPRPDNWPRP | 0.409
24 | RRIRIRPPRLPRPRPRPMHPPRP | 0.00185
25 | RRIRYRPPRLPRPRPRPLALPRP | -0.816

Row | Sequence | shrunken log2 fold change
26 | RRIRDRPPRLPRPRPRPRHGPRP | -0.0452
27 | RRIRVRPPRLPRPRPRPKYRPRP | -0.0331
28 | RRIRMRPPRLPRPRPRPVNEPRP | 0.0186
29 | RRIRYRPPRLPRPRPRPKFQPRP | -0.0557
30 | RRIRMRPPRLPRPRPRPIYTPRP | -0.257
31 | RRIRWRPPRLPRPRPRPIHRPRP | -0.0434
32 | RRIRRRPPRLPRPRPRPELVPRP | 0.27
33 | RRIRNRPPRLPRPRPRPVCDPRP | 0.0842
34 | RRIRVRPPRLPRPRPRPMPGPRP | 0.18
35 | RRIRRRPPRLPRPRPRPEGEPRP | 1.17
36 | RRIRARPPRLPRPRPRPFFKPRP | -0.0427
37 | RRIRQRPPRLPRPRPRPYKMPRP | -0.292
38 | RRIRPRPPRLPRPRPRPSQQPRP | 0.0138
39 | RRIRARPPRLPRPRPRPCLSPRP | 0.233
40 | RRIRKRPPRLPRPRPRPKRAPRP | 1.04
41 | RRIRDRPPRLPRPRPRPKWGPRP | 0.105
42 | RRIRGRPPRLPRPRPRPSHRPRP | -0.0458
43 | RRIRFRPPRLPRPRPRPDSWPRP | -0.161
44 | RRIRMRPPRLPRPRPRPYKKPRP | -0.161
45 | RRIRDRPPRLPRPRPRPMVLPRP | 0.359
46 | RRIRWRPPRLPRPRPRPDFAPRP | 0.49
47 | RRIRQRPPRLPRPRPRPSNSPRP | -0.294
48 | RRIRLRPPRLPRPRPRPHVSPRP | 0.00444
49 | RRIRIRPPRLPRPRPRPKQHPRP | -0.307
50 | RRIRARPPRLPRPRPRPDMMPRP | 0.139

Row | Sequence | shrunken log2 fold change
51 | RRIRIRPPRLPRPRPRPLHSPRP | -0.402
52 | RRIRARPPRLPRPRPRPTLAPRP | 1.65
53 | RRIRVRPPRLPRPRPRPWYCPRP | -0.462
54 | RRIRNRPPRLPRPRPRPGETPRP | 0.0546
55 | RRIRVRPPRLPRPRPRPTLHPRP | 0.195
56 | RRIRQRPPRLPRPRPRPDVTPRP | 0.143
57 | RRIRERPPRLPRPRPRPHKKPRP | 0.0621
58 | RRIRYRPPRLPRPRPRPDHYPRP | -0.0219
59 | RRIRYRPPRLPRPRPRPTLGPRP | -0.16
60 | RRIRSRPPRLPRPRPRPQTQPRP | 0.198
61 | RRIRGRPPRLPRPRPRPFLLPRP | 0.206
62 | RRIRNRPPRLPRPRPRPGWSPRP | 0.2
63 | RRIRQRPPRLPRPRPRPKLHPRP | -0.201
64 | RRIRIRPPRLPRPRPRPPPEPRP | 0.32
65 | RRIRARPPRLPRPRPRPSQWPRP | 0.24
66 | RRIRNRPPRLPRPRPRPGNQPRP | -0.00674
67 | RRIRERPPRLPRPRPRPDTQPRP | -0.116
68 | RRIRSRPPRLPRPRPRPAKVPRP | -0.0898
69 | RRIRDRPPRLPRPRPRPSYKPRP | -0.208
70 | RRIRNRPPRLPRPRPRPCWSPRP | 0.0596
71 | RRIRVRPPRLPRPRPRPELSPRP | 0.119
72 | RRIRKRPPRLPRPRPRPLIHPRP | 1.09
73 | RRIRSRPPRLPRPRPRPPPIPRP | 0.572
74 | RRIRVRPPRLPRPRPRPYHCPRP | -0.157
75 | RRIRLRPPRLPRPRPRPDFIPRP | -0.295
